Experimental data: the DeepSol protein solubility set

Assay: soluble on expression in E. coli; label from the status in PepcDB or PDB records

| Sequence | soluble on expression in E. coli |
| --- | --- |
| MATPLWQTIYNNAVLLPESPKAIVHFLGGAFIAAAPQVTYRRLLEGLGDRGFAVIATPFINTFDHTTLADEVGRSYRLAYERLLALGLISPELPIFGVGHSMGSKLHLLMGCAQTSDRRGNVLLAFNNYSARRSIPLLGQLAPALDVTVEFSPSPARTLRLIRDRYSVANNLLVKFRNDEIDQTRDLIGALRDRFPETSEWLRLSGNHLTPVGQSLPQQTGLAWLDGVSQLASRELGRDLEVVTTAIADWCDRQLTAPATVVLEHHHHHH | not soluble |
| MSLSDPIKIGFLAPLTGPVSSWGLPGLHGCRLWEDWLNRAGGILVGGRRYPVSIVPFDCGYDPERAMEGARHLVHTEQVKLLMMLGGDTFTPLRGFLTANKVLTSTLLPSDLSPDTRYLIAPSEVHPIYNVTGVDWLARNRPELRRVAMCSQKDALGLPSIATYRAAFEAAGVPVVKEVEYDPEMTDVATIVQPMLDAQPDVLCWCTSYTPMVHAMTEYAHAKGFSGQILSCTLDNYQRLVARTSAEFMEGALFQFPDFDDPKLARKAFFFNRPSTFFKEYNARYPGNWSAVSWEYVAILDIWHAAVEKVASVHPVSVLATMKQMDPVTHAFGPARWWGEGHHHHHH | not soluble |
| MSILMPVRNEERFLPAALASLCRQSLTAWELIVVDDGSTDDTPELLRVAAARDRRVRVFNNAGAGLVDALNYGLAHCRAELVARMDGDDISHPQRLERQAAALDADPGLGLVATRFRHFPRHSVGLGMRAYEEWQNGLLTHEEIMRDRFVESPVVHPSVMARRQALTDAGGYRKTGWAEDYDLWLRLAAGGVRFTRLPEVLFFWRERPERATRTMGEYAADAFRACKIHHLCQGFLLGVDNVTLAGAGLEGRAWQRALAREGVRVGRWLDVDPRKQGRILHGAPVTAPDDVRAGAEKILVTVGTRGARDGVRAWARRAGLREGEDFVCVTLEHHHHHH | not soluble |
| MNRRQFLGSAAAVSLASAASFARAHGHADYHHHHDMQPAAASAYTAVRQTAAHCLDAGQVCLTHCLSLLTQGDTSMSDCAVAVRQMLALCGAVHDLAAQNSPLTRDAAKVCLEACKQCAKACKEHSAHHAECKACYESCLDCIKECEKLAALEHHHHHH | soluble |
| MGSDKIHHHHHHMEKLYEIYTGGAEDSFEVGKLLFEENSWQLYLTLDELGRDDSLLLIRKPAVTRLLDQSDYLAEIQRRRKMLTQKGLADPFKLEDKVTLIKSVGSFMDLLPGQVVYFGLEGEDYQQWGYIDEISAGQVNFAAYPSGKYRPFAGEVAVSQLRRLAAFSGEWLLDNPKLRDTEDTTVDGLREVHLKEDPASFAVGRLLCADDDFSLYLTVDEIGRDDSLLLVKKLAVDRVIDQSEYLQDTSRCRRQLKEKGLEDPFEVQGKAANIKQMQDFWRLAAGQVVSFVMKDEEEAEYGILKSKEGDALSFGQYPSGKYETFAGQISLVEVDRLEAFGGELTLENNNC | not soluble |
| MAIIKSPVFKDISEAEISEMTSAGFLRARKFRKKAIIYHVTDIVHEIGIVASGQVTIEYIDMWGNKAIMSNIAPGQVFAETYALSGEPLMVDAVASETSVVLFLNIRKLMDSQPENVHYKDTILNNLLHISIQKNLTLSNRIFCTSPKTIRDRLLIYLSNESRKAGCEEFSIPFDRQQLADYLNVDRTALSKELGKMRDDGLIEFRKNVFHLLSIC | not soluble |
| GNIAKPIRILGNGMDRVANGELETRISQQVDDRDDELSHLAIQFDKMVEKLEKLVAKERHLLHHVSHEMRSPLARMQAIVGLIQAQPQKQEQYLKRLEGELTRMDTLAGELLTLSRLETSNMALEKESLKLLPFLGNLVEDNQSIAQKNGQTVTLSADGKIPENTTILANESYLY | not soluble |
| MEQLTKCEVFRELKDLKGYGGVSLPEWVCTTFHTSGYDTQAIVQNNDSTEYGLFQINNKIWCKDDQNPHSSNICNISCDKFLDDDLTDDIVCVKKILDKVGINYWLAHKALCSEKLDQWLCEKL | soluble |
| MEKIIITATAESIEQVKALLAAGVDRIYVGEANYGLRLPHNFSYDELRQIAKLVHDAGKELTVACNALMHQDMMDQIKPFLDLMIEIAVDYLVVGDAGVFYVNKRDGYNFKLIYDTSVFVTSSRQVNFWGQHGAVESVLAREIPSAELFTLAENLEFPAEVLVYGASVIHHSKRPLLENYYHFTKIDDEVSRERGLFLAEPGDASSHYSIYEDNHGTHIFINNDIDMMSKLGELYAHGLTHWKLDGIYCPGDDFVAITKLFIQAKTLLEAGQFTQEEAEKLDQAVHAHHPAGRGLDTGFYEFDPKTVK | not soluble |
